This is an account of results in article PMC7861550.

To fix the notation:
B1: unnamed (parent)
chain: MDIDPYKEFGATVELLSFLPSDFFPSVRDLLDTASALYREALESPEHCSPHHTALRQAILCWGELMTLATWVGVNLEDPASRDLVVSYVNTNMGLKFRQLLWFHISCLTFGRETVIEYLVSFGVWIRTPPAYRPPNAPILSTLPETTVVRRRGRSPRRRTPSPRRRRSQSPRRRRSQSRESQC

Variants of B1 are the subject of this assay. Briefly: capsid assembly (Ca assem). As to conditions: with partner chain of the complex shown.
Regarding chain 1 L143I, the ratio to parent amounted to 0.97.
As for chain 1 L143A, the ratio to parent came to 1.05.
For the variant chain 1 T146A T147A, the ratio to parent was found to be 1.08.
Turning to chain 1 T146D T147D, the ratio to parent stood at 1.06.
On to chain 1 E145D, for which the ratio to parent stood at 1.05.
With chain 1 S141T V148I V149I, the ratio to parent was 0.98.
chain 1 S141D: the ratio to parent was found to be 1.11.
For the variant chain 1 S141R, the ratio to parent turned out to be 1.16.
With chain 1 S141A the figure was 1.03; with chain 1 L140A, 1.32.
